From article PMC6286077 come the findings set out here.

The target of this assay is phosphorylated PD-1 cytosolic domain, bound to large unilamellar vesicles (LUVs). Briefly: FRET or BRET. For orientation: In BRET a luciferase serves as donor, and the signal depends on an acceptor being close.

As for “Shp1, full length, SNAP-Tag fused, labeled with SNAP-Cell 505 (from UniProt P29350 1-595) (enzyme)”, the fold selectivity of PD-1 toward full-length Shp2 over Shp1 came to 29 fold.
